Consider 41 sequences from the nanobody polyreactivity screen of Harvey et al. (2022).

The data set can be described thus: yeast display, Sf9 membrane polyspecificity reagent, FACS + sequencing; frameworks hold sequencing errors. In a few lines:
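Nanobodies from a synthetic yeast display library (Saccharomyces cerevisiae BJ5465), induced 36–48 hours with galactose, were stained 1 hour at 4 °C with 10% biotinylated, detergent-solubilized Sf9 membrane reagent, enriched on streptavidin microbeads, then FACS-sorted. Anti-HA (expression) and streptavidin (reagent binding) fluorescence set low and high (top ~1%) gates. Polyreactivity labels come from the gate of origin. Genes were colony-PCR amplified, MiSeq 2 × 250 sequenced and filtered by CDR length.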
On to “QVQLVESGGGLVQAGGTLRLSCAASGRTFGWYAMGWYRQAPGKERELVASITQRGGRTYYADSVKGRFTISRDNAKNTVYLQMNSLKPEDTAVYYCAAKTSPGMYYWGQGTQVTVSS”, for which the “polyreactivity (PSR sort gate)” value is listed as “high polyreactivity”. The entry for “QVQLVESGGGLVQAGGSLRLSCGASGFTIQRNAIVWSRQAPGKERELVAAITRGGSTYYADSVKGRFTISRDNAKNTVYLQMNSLKPEDTAVYYCAKRIFSSYIGYGYWGQGTQVTVSS” is “high polyreactivity”; for “QVQLVESGGGLVQAGGSLRLSCAASGFTFSSYAMGWYRQAPGKERELVAAITISGGRTYYSDSVKGRFTISRDNAKNTVYLQMNSLKPEDTAVYYCNTDYGRRYDYWGQGTQVTVSS” it is “high polyreactivity”; for “QVQLVESGGGLVQAGGSLRLSCAASGRIFGYNAMGWYRPAPGNERELVAAISWSGGNTYYADSVKGRFTISRDHAKNTVYLQMNSLKPEDTAVYYCNASPYRYRPSEYDYWGQGTQVTVSS” it is “high polyreactivity”. The entry for “QVQLVESGSGLVQAGGILRLSCAASGFIFDAYAMGWYRQAPGKERELVAGISIGGRTNYADSVTGRFTISRDNALNTVYLQMTSLKPEDTAVYYCAARNYRYYYGSYYRGPITNYEYWGQGNQVTVSS” is “low polyreactivity”; for “QVQLVESGGGLVQAGGSLRLSCAASGSNFINNAMGWYRQAPGKERELVAAISGNADRTYYADSVKGRFTISRDNAKNTLYLQMNSLKPEETAVYYCNKGYGVYYTFGSWGQGTQVTVSS” it is “low polyreactivity”; for “QVQHVESGGGLVQAGGSLRLSCAASGFILPWYVMGWYRQAPGKERELVAAISGTGGSTYYADSVKGRFTISRDNAKNTVYLQMNSLKPEDTAVYYCAAGAFYAGYYWEFYYWGQGTQVTVSS” it is “high polyreactivity”.

Take “QVQLEESGGGLVQAGGSLRLSCAASGRIFKGYAMGWYRQATGKETEVVAAISSRGGNTYYADSVKGRFTISRDNAKNTVYLQMNSLKPVDTAVYYCAAVYKWSRYGGYNYWGQGTQVTVSS”: the “polyreactivity (PSR sort gate)” value is recorded as “low polyreactivity”. As for “QVQLVESGGGLVQEGGSLRLSCADSGFIFRRYAMGWYIQAPGKERELVAAIRSDGSTNYADSVKGRFTISRDNAKNTVYLQMNSLKPEDTAVYYCAATYYSYTWFSQYYYWGQGTQVTVSS”, the entry is “high polyreactivity”; as for “QVQLVESGGGLDQAGGSLRLSCAASGFIYSYAMGWYRQAPGKERELVAAIRRGGPTNYADSVKGRFSISRDNAKTTVYLPMNSRKPEDTAVYYCAADSWFRRNEYDDWGQGTQVTVAS”, “high polyreactivity”; as for “QGQLVESGGGLVQAGGSLRLSCAASGRIFTRYALGWYRQAPGNEREFVARSTGSGGRTYYADSVKGRFSISRDNAKNTVYLQMNSLKPEDTAVYYCNARRPSWHSYDYGYADYYWGQGTQVTVSS”, “high polyreactivity”. As for “QVQLVESGGGLVQAGGSLRLSCAASGSTFGTYAMGWYRQAPGKERELVAAISWSGGSTYYADSVKGRFTISRDKAKNTVYLQMNSLKPEDTAVYWGQGTQVTVSS”, the entry is “low polyreactivity”; as for “QVQLVESGGGLVQAGGSLRLSCPASGFTFGRYGMGWYRQAPGKERELVAGITWSGGSTSYADSVKGRFTISRDNAKNTVYLQMYSLIPEDTAVYYCATRARYTRVHGRRYAYDYWGQGTQVTVSS”, “high polyreactivity”.

With “QVQLVESGGGLVQAGGSLRLSCAASGGTFGNNDMGWYRQAPGKERELVAAIRSAGTTYYADSVKGRFTISRDNAKNTVYLQMNSLKPEDTAVYYWNADTTGYWSFGFQYYGEDYWGQGTQVTVSS”, the “polyreactivity (PSR sort gate)” value is listed as “low polyreactivity”. As for “QVQLVESRGGLVQAGGSLRLSCAASGRTFWYYAMGWYRQAPGKEMELVATITGSGGTTYYADSVKGRFTISRDNAKNTVYLQMNSLKREDTAVYYCAKEQHWYIYGPAEVDYWGQGTQVTVSS”, the entry is “high polyreactivity”; as for “QVQLVESGGGLVQAGGSLRLSCAASGFTIGANNMGWYRQAPGKERELLAAISASGGSTYYADSVKGRFTISRDNAKNTVYLQMNSLKPEDTAVYYCAARRYPGRTATYYSWGQGTQVTVSS”, “high polyreactivity”; as for “QVQLVESGGGLDQAGGSLPLSCASSGSIFRSNAMGWSRQPPAKAREMVAAITESGDTTNYADSVKGRFTISRDNAKNTVYLQMNSLKPEDTAVYYCNAGWTMSYVYSQMDYWGQGTQVTVSS”, “low polyreactivity”. The entry for “QVQHVESGGGLVQAGGSLRLSCAASGSILFKYAMGWSRQAPGQESELVATITSGGSTYYADSVKGRVTISRDNAKNTVYLQMNSLKPEDTAVYYCATGQYYYDGIVAFFELDYWGQGTQVTVSS” is “low polyreactivity”; for “QVQLVESGGGLVQAGGSLRLSCAASGSIFWSYAMGWYRQAPGKERELVASITRSGGSTYYADSVKGRFTISRDNAKNTVYLQMNSLKPEDTAVYYCNARRTTRWGSSKYEYDYWGQGTQVTVSS” it is “high polyreactivity”. The entry for “QVQLVESGGGLVQAGGSLRLSCAASGYTFRYYAMGSYRQAPGKERELVAAITWSGGSTYYADSVKGRFTISRDNAKNTVYLQMNSLKPEDTAVYFCATDSARVGNFPYPQFDYWGQGTQVTVSS” is “low polyreactivity”; for “QVQLVESGGGLVQAGGSLRLSCAASGGLFWTYAMGWYRQAPGKERELVATITSGGSTNYADSVKGRFTISRDNAKNTVYLQMNSLKPEETAVYYCNADWWWGYGYWGQGTQVTVSS” it is “low polyreactivity”. As for “QVQLVESGGGLVQAGGSLRLSCAASGGIYDSYAMGWYRQAPGKEGEMVASISWSGGSTYYADSVKGRFTISRDNAKNTVYLQMNSLKPEDTAVYYCAADRAYAGRYWKGYHSALYDYWGEGTQVTVSS”, the “polyreactivity (PSR sort gate)” value is listed as “low polyreactivity”.

Turning to “QVQLVESGGGLVQAGGSLRLSCAASGSIFKLNAMGWYRQAPGKERELVAAISRGGRTYYADSVKGRFTISRDNAKNTVYLQMNSLKPEDTAVYYCAADASSQIWYYPRDDYWGQGTLVTVSS”, the “polyreactivity (PSR sort gate)” value is given as “low polyreactivity”. As for “QVQLVESGGGLVQAGGSLRLSCAASGRTFYYNGMGWYRQAPGKERELVAAITSGGTTSYADSVKGRFTISRDNAKNTVYLLMNCLKPEDTAVYYCNAECAPWGSAYGHDQYDYWGQGTQVTVSS”, the entry is “low polyreactivity”; as for “QVQRVESGGGLVQAGGSLRLSCAASGRTFGYNAMGWYRQAPGKERELVAAISSSGGSTYYADSVKGRFTISRDNAKNTVYLQMNSLKPEDTAVYYCATQGYSWAHGSDYWGQGTQVTVSS”, “low polyreactivity”; as for “QVQLVESVGGLVQAGGSLRLSCAASGRTFHGNAMRWYRQARGKERELVAAISYSGGRTYYADSVKGRFTISRDNAKNTVYLQMNSLKPEDTAVYYCAAWGSSYSFDYWGQGTQVTVSS”, “high polyreactivity”. As for “QVQLVESGGGLVQAGGSLRLSCAASGRTFRYNAMGWYRQAPGKERELVAAISGSGGITYYADSVKGRFTISRDNAKNTVYLQMNSLKPEDTAVYYCAAVYRYNSDPDYDYWGQGTQVTVSS”, the entry is “high polyreactivity”; as for “QVQLVESGGGLVQAGGSLRLSCAASGSIFEHYAMGWYRQAPGKERELVATISSASRTNYADSVKGRFTISRDNAKNTVYLQMNSLKPEDTAVYYCAARFYYVWYGPYYYWGQGTQVTVSS”, “high polyreactivity”; as for “QVHLVESGGGLVQAGGSLRLSCAASGFIFAEYAMGWYRQEPGKERELVATINIGGSTYYADSVKGRFTISRDNAKNTVYLQMNSLKPEDTAVYYCAAEFWWGDGSQGIYDYDYWGQGSQVTVSS”, “low polyreactivity”. As for “QVQLVESCGGLVQARGSLRLSCAASGRTIDSYAMGWYRQAPGKERELVAAITSGVSTYYADSVKGRITISRDNATNTVYLQMNSLQPEDTSVYYCARKHAIWRGYDFWGQGTQVTVSS”, the entry is “low polyreactivity”; as for “QVQLVESGGGLVQAGGSLRLSCAASGFILWPYAMGWYRQEPGKERELVAAITTGGSTNYADSVKGRFTISRDNAKNTVYLQMNSLKPEDTAVYYCAKGYYFGYYEFDYWGQGTQVTVSS”, “high polyreactivity”; as for “QVQLVESGGALVQAGGSLRLSCAASGRTFTFNTMGWYRQAPGKERELVAAIDGDGTTNYADSVKGRFTISRDNAKNTVYLLMNSLKPEDTAVYYCAADFLYSFWYEPTFDYCGQGTQVTVSS”, “low polyreactivity”. On to “QVQLVESGGGLVQAGGSLRLSCAASGSTFSANAMGWYRPAPGKERELVAAISRSGTRTYYADSVKGRFTISRDNAKNTVYLQMNSLKPEDTAVYYCAAYVYQYGYDYWGQGTQVTVSS”, for which the “polyreactivity (PSR sort gate)” value was “high polyreactivity”. The entry for “QVQLVESGGGLVQAGGSLRLSCAASGSIFRDNAMGWYRQAPGKERELVAAITDSGGRTYYADSVKGRFTISRDNAKNTVYLQMNSLKPEDTAVYYCAAGQSGYAGRRPAFGYWGQGTQVTVSS” is “low polyreactivity”. The entry for “QVQLVESGGGLVQAGGSLRLSCAASGRTFVIYAMGWYRQAPGKQRELVAAISKSGGRTYYADSVKGRFTISRDNAKNSVYLQMNSLKPEDTAVYYCNKVLSVSQAGGFDYWGQGTQVTVSS” is “high polyreactivity”. As for “QVQLVDSGGGLVQAGGILRLSCAASGRTISSYAMGWYRQAPGKERELVAAITRTGGRTYYAYSVKGRFTISRDNAKNTVYLQMNSLKPEDTAVYYCAATGIRYGVKYYYWGQGTQVTVSS”, the entry is “high polyreactivity”; as for “QVQLVESGGGLVQAGGSLRLSCAASGSIFLQYTMGWYRQAPGKERELVAAITESDGSTYYADSVKGRFTISRDNAKNTVYLQMNSLKPEDTAVYYCAADVVYFKYWDKYDYWGQGTQVTVSS”, “low polyreactivity”. As to “QVQLVESGGGLVQAGGSLRFSCAASGSILYYNAKGWYIQAPGKEREFVAAISDSGSSTYYADSVKGRFTISRDTAKNTVYLQMNSLKPEDTADYYCNAYQGDKYDSWGQGSQVTVSS”, the “polyreactivity (PSR sort gate)” value is given as “low polyreactivity”. As for “QVQLVESGGGLVQAGGSLRLSCAASGFTFGRYAMGWYRQAPGKERELVAAITYTDGSTYYADSVKGRFTISRDNAKNTVYLQMNSLKPEDTAVYYCAATTLSFEGGKYWSKYDYWGQGTQVTVSS”, the entry is “low polyreactivity”; as for “QVQLVESGGGLVQAGGSLRLSCAASGSIFRAYAMGWYRQAPGKERELVAAINWTDGSTYYADSVKGRFTISRDNAKNTVYLQMNSLKPEDTAVYYCAKDSIARHNYWGQGTQVTVSS”, “low polyreactivity”. Regarding “QVQLVESGGGLVQAGGSLRLSCAASGRTYYNNAMGWYRQAPGKEREFVAAISASGGRTRYADSVKGRFTISRDNAKNTVYLQMNSLKPEDTAVYYCAAAGTSTLYWGQGTQVTVSS”, the “polyreactivity (PSR sort gate)” value is given as “high polyreactivity”.
